In patent publication US20050042213A1, “Methods and pharmaceutical compositions for modulating heparanase activation and uses thereof” (InSight Biopharmaceuticals Ltd., priority 2003, published 2005):

T1: pro-heparanase (H60) (Homo sapiens, UniProt Q9Y251, K307R)
T1 sequence (Q9Y251 36-543 K307R): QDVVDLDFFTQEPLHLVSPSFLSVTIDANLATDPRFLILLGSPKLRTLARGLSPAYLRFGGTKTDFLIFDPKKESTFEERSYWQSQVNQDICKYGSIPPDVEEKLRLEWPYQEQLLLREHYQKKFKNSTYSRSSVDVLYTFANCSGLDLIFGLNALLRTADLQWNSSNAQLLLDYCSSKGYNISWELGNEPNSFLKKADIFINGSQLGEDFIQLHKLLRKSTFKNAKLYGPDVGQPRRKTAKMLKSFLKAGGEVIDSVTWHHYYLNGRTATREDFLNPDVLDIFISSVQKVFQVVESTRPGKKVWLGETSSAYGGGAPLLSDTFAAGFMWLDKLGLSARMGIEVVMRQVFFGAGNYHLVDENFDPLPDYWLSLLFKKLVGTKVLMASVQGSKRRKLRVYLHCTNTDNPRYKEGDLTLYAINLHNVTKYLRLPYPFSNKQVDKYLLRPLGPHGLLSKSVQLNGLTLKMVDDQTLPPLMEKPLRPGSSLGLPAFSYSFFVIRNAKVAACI


Target: T1, pro-heparanase (H60)
Experiment: Circular dichroism spectrometry of pro-heparanase
Set-up: key to a helix / β strand / β turn / Un-ordered: fraction of secondary structure (0-1)
Details: fraction of secondary structure of H60
Protocol: Circular Dichroism spectrometry—Circular Dichroism spectra were recorded using a JASCO 500 spetropolarimeter. Far Ultraviolet measurements (260-200 nm) were performed in a 0.1 mm demountable cuvette at 25° C., scanning at a rate of 10 nm/min. Pro-heparanase was assayed at a concentration of 0.72 mg/ml in 20 mM sodium phosphate buffer pH 6.8 supplemented with 300 mM NaCl. Effect of heparin on pro-heparanase spectra was determined at a concentration of 100 μM, and the inhibitor was added at a concentration of 15 μM. Base-line recordings were performed in the presence and absence of heparin to correct the pro-heparanase spectra.

| Un-ordered | a helix | β strand | β turn | Molecule |
| --- | --- | --- | --- | --- |
| 0.33 | 0.29 | 0.26 | 0.12 | H60 − heparin: purified 60 kDa pro-heparanase without heparin (protein) QDVVDLDFFTQEPLHLVSPSFLSVTIDANLATDPRFLILLGSPKLRTLARGLSPAYLRFGGTKTDFLIFDPKKESTFEERSYWQSQVNQDICKYGSIPPDVEEKLRLEWPYQEQLLLREHYQKKFKNSTYSRSSVDVLYTFANCSGLDLIFGLNALLRTADLQWNSSNAQLLLDYCSSKGYNISWELGNEPNSFLKKADIFINGSQLGEDFIQLHKLLRKSTFKNAKLYGPDVGQPRRKTAKMLKSFLKAGGEVIDSVTWHHYYLNGRTATREDFLNPDVLDIFISSVQKVFQVVESTRPGKKVWLGETSSAYGGGAPLLSDTFAAGFMWLDKLGLSARMGIEVVMRQVFFGAGNYHLVDENFDPLPDYWLSLLFKKLVGTKVLMASVQGSKRRKLRVYLHCTNTDNPRYKEGDLTLYAINLHNVTKYLRLPYPFSNKQVDKYLLRPLGPHGLLSKSVQLNGLTLKMVDDQTLPPLMEKPLRPGSSLGLPAFSYSFFVIRNAKVAACI |
| 0.3 | 0.44 | 0.26 | 0 | H60 + heparin: 60 kDa pro-heparanase in the presence of heparin (protein, UniProt Q9Y251 36-543, looked up, pro-form with heparin, 60 kDa pro-heparanase in the presence of heparin) pro-form: QDVVDLDFFTQEPLHLVSPSFLSVTIDANLATDPRFLILLGSPKLRTLARGLSPAYLRFGGTKTDFLIFDPKKESTFEERSYWQSQVNQDICKYGSIPPDVEEKLRLEWPYQEQLLLREHYQKKFKNSTYSRSSVDVLYTFANCSGLDLIFGLNALLRTADLQWNSSNAQLLLDYCSSKGYNISWELGNEPNSFLKKADIFINGSQLGEDFIQLHKLLRKSTFKNAKLYGPDVGQPRRKTAKMLKSFLKAGGEVIDSVTWHHYYLNGRTATKEDFLNPDVLDIFISSVQKVFQVVESTRPGKKVWLGETSSAYGGGAPLLSDTFAAGFMWLDKLGLSARMGIEVVMRQVFFGAGNYHLVDENFDPLPDYWLSLLFKKLVGTKVLMASVQGSKRRKLRVYLHCTNTDNPRYKEGDLTLYAINLHNVTKYLRLPYPFSNKQVDKYLLRPLGPHGLLSKSVQLNGLTLKMVDDQTLPPLMEKPLRPGSSLGLPAFSYSFFVIRNAKVAACI |
